The Kd is the constant that tells how readily two partners part at equilibrium. Broadly, the koff is the first-order rate constant of dissociation. The kon is a measure of how fast the partners come together.

Assay [1] concerns the target T1, recombinant chimpanzee PSMA extracellular domain (ECD) protein (Pan troglodytes, UniProt Q04609 44-750 (human entry)).
T1 construct: also called Chimp PSMA ECD; PSMG8
T1 chain: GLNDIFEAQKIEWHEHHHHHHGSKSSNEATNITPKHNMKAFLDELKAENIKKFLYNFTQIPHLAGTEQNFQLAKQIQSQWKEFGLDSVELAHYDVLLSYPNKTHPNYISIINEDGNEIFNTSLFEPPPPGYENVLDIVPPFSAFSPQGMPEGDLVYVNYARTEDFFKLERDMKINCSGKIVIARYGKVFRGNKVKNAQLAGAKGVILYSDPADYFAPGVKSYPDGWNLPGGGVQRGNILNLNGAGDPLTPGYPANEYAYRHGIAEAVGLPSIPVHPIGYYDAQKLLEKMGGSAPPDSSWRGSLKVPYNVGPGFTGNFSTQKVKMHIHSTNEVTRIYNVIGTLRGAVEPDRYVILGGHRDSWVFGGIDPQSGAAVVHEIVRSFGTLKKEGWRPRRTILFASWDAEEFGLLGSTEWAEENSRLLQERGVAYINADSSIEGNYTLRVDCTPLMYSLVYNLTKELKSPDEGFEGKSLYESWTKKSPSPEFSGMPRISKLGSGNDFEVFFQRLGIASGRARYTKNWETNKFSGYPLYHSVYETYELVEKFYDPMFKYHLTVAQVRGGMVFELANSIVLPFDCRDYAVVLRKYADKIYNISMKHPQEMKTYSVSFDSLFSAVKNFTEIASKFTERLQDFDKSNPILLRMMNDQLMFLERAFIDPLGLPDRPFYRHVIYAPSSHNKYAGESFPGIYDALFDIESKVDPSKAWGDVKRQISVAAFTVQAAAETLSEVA
In words: SPR ProteOn, bsAb captured by anti-Fc. Here is the method:
The interactions of PSMA×CD3 bispecific mAbs with target (recombinant Chimp, PSMA) were studied by Surface Plasmon Resonance (SPR) using a ProteOn XPR36 system (BioRad). […] Approximately 4400 RU (response units) of anti-Human IgG Fc antibodies were immobilized. The kinetic experiments were performed at 25° C. in running buffer (DPBS+0.03% P20+100 μg/ml BSA). […] The association phase was monitored for 3 minutes at 50 μL/min, then followed by 15 minutes of buffer flow (dissociation phase). The chip surface was regenerated with two 18 second pulses of 100 mM Phosphoric acid (H₃PO₄, Sigma, cat #7961) at 100 μL/min.
The collected data were processed using ProteOn Manager software. First, the data was corrected for background using inter-spots. Then, double reference subtraction of the data was performed by using the buffer injection for analyte injections. The kinetic analysis of the data was performed using a Langmuir 1:1 binding model.

Assay [2] addresses T1, recombinant chimpanzee PSMA …. In words: SPR ProteOn.
In assay [3] the target is T2, recombinant cynomolgous monkey PSMA extracellular domain (ECD) protein (Macaca fascicularis, UniProt Q04609 48-750 (human entry), biotin on the Avi tag).
T2 construct: also called cyno PSMA ECD; PSMG1
T2 chain: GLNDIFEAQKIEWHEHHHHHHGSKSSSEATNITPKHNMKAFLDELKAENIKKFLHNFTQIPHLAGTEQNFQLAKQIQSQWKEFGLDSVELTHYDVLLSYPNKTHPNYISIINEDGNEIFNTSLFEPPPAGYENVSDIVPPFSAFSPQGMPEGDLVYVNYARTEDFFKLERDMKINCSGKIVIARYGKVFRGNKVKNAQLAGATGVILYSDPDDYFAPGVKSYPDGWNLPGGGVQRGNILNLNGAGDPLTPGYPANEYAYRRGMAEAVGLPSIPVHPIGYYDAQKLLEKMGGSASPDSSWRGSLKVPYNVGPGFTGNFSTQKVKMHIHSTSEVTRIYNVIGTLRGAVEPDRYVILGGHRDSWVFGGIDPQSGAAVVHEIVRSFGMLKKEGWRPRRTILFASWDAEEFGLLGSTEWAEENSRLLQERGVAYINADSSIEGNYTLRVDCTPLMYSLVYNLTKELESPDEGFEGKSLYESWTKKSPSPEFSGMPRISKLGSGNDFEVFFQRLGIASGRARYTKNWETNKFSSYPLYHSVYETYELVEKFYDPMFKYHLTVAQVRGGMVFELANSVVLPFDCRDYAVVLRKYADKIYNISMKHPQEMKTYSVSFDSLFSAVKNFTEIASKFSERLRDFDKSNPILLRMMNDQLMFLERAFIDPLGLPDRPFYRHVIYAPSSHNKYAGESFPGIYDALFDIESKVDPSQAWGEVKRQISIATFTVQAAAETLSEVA
In words: SPR ProteOn, bsAb captured by anti-Fc.

In assay [4] the target is T2, recombinant cynomolgous monkey PSMA …. In words: SPR ProteOn.
The target in assay [5] is T3, recombinant human PSMA extracellular domain (ECD) protein (human, UniProt Q04609 44-750).
T3 construct: also called human PSMA ECD
In words: SPR ProteOn.

For assay [6], the target named is T1, recombinant chimpanzee PSMA …. As to the kind of experiment: SPR ProteOn.
Assay [7] has as its target T3, recombinant human PSMA extracellular …. As to the kind of experiment: SPR ProteOn, bsAb captured by anti-Fc.

B1: PS3B27 (bispecific antibody, human IgG4 S228P, kappa, lambda, F234A L235A)
heavy 1: not shown
light 1: not shown
heavy 2: EVQLVESGGGLVQPGGSLRLSCAASGFTFNTYAMNWVRQAPGKGLEWVARIRSKYNNYATYYAASVKGRFTISRDDSKNSLYLQMNSLKTEDTAVYYCARHGNFGNSYVSWFAYWGQGTLVTVSSASTKGPSVFPLAPCSRSTSESTAALGCLVKDYFPEPVTVSWNSGALTSGVHTFPAVLQSSGLYSLSSVVTVPSSSLGTKTYTCNVDHKPSNTKVDKRVESKYGPPCPPCPAPEAAGGPSVFLFPPKPKDTLMISRTPEVTCVVVDVSQEDPEVQFNWYVDGVEVHNAKTKPREEQFNSTYRVVSVLTVLHQDWLNGKEYKCKVSNKGLPSSIEKTISKAKGQPREPQVYTLPPSQEEMTKNQVSLTCLVKGFYPSDIAVEWESNGQPENNYKTTPPVLDSDGSFLLYSKLTVDKSRWQEGNVFSCSVMHEALHNHYTQKSLSLSLGK
light 2: QTVVTQEPSLTVSPGGTVTLTCRSSTGAVTTSNYANWVQQKPGQAPRGLIGGTNKRAPGTPARFSGSLLGGKAALTLSGVQPEDEAEYYCALWYSNLWVFGGGTKLTVLGQPKAAPSVTLFPPSSEELQANKATLVCLISDFYPGAVTVAWKADSSPVKAGVETTTPSKQSNNKYAASSYLSLTPEQWKSHRSYSCQVTHEGSTVEKTVAPTECS
notes: IgG4 PAA; PSMA arm chains first, then CD3 arm (F405L, R409K); also called PSMB127 x CD3B219; PS2B27
Regarding B1, the dissociation constant Kd came to 7.48 nM in assay [1]; 7.48 nM in assay [2]; 7 nM in assay [3]; 7 nM in assay [4]; 10.3 nM in assay [5]; 7.48 nM in assay [6]. Moreover, the dissociation constant Kd in assay [7] is 10.3 nM. Moreover, the koff was determined as 0.00156 s⁻¹ in assay [1]; 0.0011 s⁻¹ in assay [3]; 0.0011 s⁻¹ in assay [4]; 0.00289 s⁻¹ in assay [5]; 0.00156 s⁻¹ in assay [6]; 0.00289 s⁻¹ in assay [7]. The kon in assay [1] was 208000 M⁻¹ s⁻¹; in assay [3], 159000 M⁻¹ s⁻¹; in assay [4], 159000 M⁻¹ s⁻¹; in assay [5] it was 287000 M⁻¹ s⁻¹; in assay [6], 208000 M⁻¹ s⁻¹; in assay [7], 287000 M⁻¹ s⁻¹.

B2: PS3B25 (bispecific antibody, human IgG4 S228P, kappa, lambda, F234A L235A)
heavy 1: not shown
light 1: not shown
heavy 2: B1 heavy 2
light 2: B1 light 2
notes: IgG4 PAA; also called PSMB87 x CD3B219
B2: the Kd worked out at 3.54 nM in assay [1]; 3.54 nM in assay [2]; 81.1 nM in assay [3]; 81.1 nM in assay [4]; 5.38 nM in assay [5]; 3.54 nM in assay [6]. Moreover, the Kd in assay [7] worked out at 5.38 nM. The koff in assay [1] was found to be 0.00099 s⁻¹; in assay [3], 0.00797 s⁻¹; in assay [4] it was 0.00797 s⁻¹; in assay [5], 0.00101 s⁻¹; in assay [6] it was 0.00099 s⁻¹; in assay [7], 0.00101 s⁻¹. The on-rate (kon) in assay [1] turned out to be 281000 M⁻¹ s⁻¹; in assay [3], 98000 M⁻¹ s⁻¹; in assay [4] it was 98000 M⁻¹ s⁻¹; in assay [5], 188000 M⁻¹ s⁻¹; in assay [6], 281000 M⁻¹ s⁻¹; in assay [7] it was 188000 M⁻¹ s⁻¹.

The values above are taken from patent US20200024360A1 (Janssen / Centocor, published 2020).
